Earlier results in patent US6759384B1, “Factor Xa inhibitors” (Aventis Pharmaceuticals Inc., priority 1994, dated 2004).

Target: factor Xa
Details: background section

B1: ATS: antistasin, protein inhibitor of factor Xa isolated from the leech Haementerin officinalis, 119 amino acids (protein, UniProt P15358 18-136, looked up)
Antistasin: QGPFGPGCEEAGCPEGSACNIITDRCTCSGVRCRMHCPHGFQRSRYGCEFCKCRLEPMKATCDISECPEGMMCSRLTNKCDCKIDINCRKTCPNGLKRDKLGCEYCECRPKRKLIPRLS
Question: For B1, which Ki is on record?
Answer: 50 pM
